In paper PMC5141509, “Identification of protein structural elements responsible for the diversity of sequence preferences among Mini-III RNases” one finds Kd data, which are given here for four molecules.

The test system of one series is Ct(FpH)MiniIII (chimera). The series can be described thus: filter binding. Conditions: Enzyme-specific cleavage buffer (Table S1, mostly not in material) with MgCl2 replaced by 1 mM CaCl2; 1.5 nM 33P-dsRNA, 50 ul, 1 h at room temperature ….
Series [1] deals with Ct(FpHL)MiniIII (chimera). The series can be described thus: filter binding. Conditions: Enzyme-specific cleavage buffer (Table S1, mostly not in material) with MgCl2 replaced by 1 mM CaCl2; 1.5 nM 33P-dsRNA, 50 ul, 1 h at room temperature ….
Another series has as its system Ct(FpL)MiniIII (chimera). The series can be described thus: filter binding. As to conditions: Enzyme-specific cleavage buffer (Table S1, mostly not in material) with MgCl2 replaced by 1 mM CaCl2; 1.5 nM 33P-dsRNA, 50 ul, 1 h at room temperature ….
A further series has as its system CtMiniIII. The series can be described thus: filter binding. Conditions: Enzyme-specific cleavage buffer (Table S1, mostly not in material) with MgCl2 replaced by 1 mM CaCl2; 1.5 nM 33P-dsRNA, 50 ul, 1 h at room temperature ….
The test system of another series is FpMiniIII. Briefly: filter binding. As to conditions: Enzyme-specific cleavage buffer (Table S1, mostly not in material) with MgCl2 replaced by 1 mM CaCl2; 1.5 nM 33P-dsRNA, 50 ul, 1 h at room temperature ….
A further series relates to SeMiniIII. The series can be described thus: filter binding. As to conditions: Enzyme-specific cleavage buffer (Table S1, mostly not in material) with MgCl2 replaced by 1 mM CaCl2; 1.5 nM 33P-dsRNA, 50 ul, 1 h at room temperature ….
The target in a further series is T1, BsMiniIII (Bacillus subtilis, UniProt O31418 1-143).
T1 sequence: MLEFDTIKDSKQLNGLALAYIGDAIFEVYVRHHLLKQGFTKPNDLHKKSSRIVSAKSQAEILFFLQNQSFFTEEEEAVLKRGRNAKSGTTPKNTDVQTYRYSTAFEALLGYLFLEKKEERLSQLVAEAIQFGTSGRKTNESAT
Briefly: filter binding; 1 mM Ca2+ (no Mg2+); Enzyme-specific cleavage buffer (Table S1, mostly not in material) with MgCl2 replaced by 1 mM CaCl2; 1.5 nM 33P-dsRNA, 50 ul, 1 h at room temperature; nitrocellulose filter; one-site fit. As to conditions: protein: recombinant; tags: N-terminal His6 (pET28a, NdeI/XhoI); chain copies: 2; label: 33P 5' end label; blunt.

On to “CCUGUCCCCCGCCGAAGUCGCUGCAAUU / AAUUGCAGCGACUUCGGCGGGGGACAGG [NEG]”, for which the Kd in the series with Ct(FpH)MiniIII (chimera) turned out to be 1940 nM; in series [1], 2250 nM; in the series on Ct(FpL)MiniIII (chimera) it was 1800 nM; in the series with CtMiniIII, 1340 nM; in the series on FpMiniIII it was 19900 nM; in the series on SeMiniIII, 190 nM.

As to “GCUGGGAGGGAAACCUCUCUCUCUGGCC / GGCCAGAGAGAGAGGUUUCCCUCCCAGC [POS-ACCU]”, the Kd with Ct(FpH)MiniIII (chimera) was 2620 nM; in series [1] it was 2170 nM; with Ct(FpL)MiniIII (chimera), 1330 nM; with CtMiniIII, 1140 nM; in the series with FpMiniIII, greater than 100000 nM; in the series with SeMiniIII, 160 nM.

B1: NEG (dsRNA)
RNA 1: CCUGUCCCCCGCCGAAGUCGCUGCAAUU
RNA 2: AAUUGCAGCGACUUCGGCGGGGGACAGG
In the case of B1, in the series with BsMiniIII, the Kd came to 70 ± 10 nM.

B2: POS-ACCU (dsRNA)
RNA 1: GCUGGGAGGGAAACCUCUCUCUCUGGCC
RNA 2: GGCCAGAGAGAGAGGUUUCCCUCCCAGC
For the molecule B2, the Kd with BsMiniIII stood at 140 ± 20 nM.
